{
  "source": "patent US10736988B2",
  "about": "“Bone substitute nanocomposites and methods of synthesis using multiphosphorylated peptides” (UNIVERSITY OF PITTSBURGH—OF THE COMMONWEALTH SYSTEM OF …, priority 2012, dated 2020)",
  "molecules": {"B1": {"name": "dentin matrix protein 1 (protein, UniProt Q13316 17-513, looked up)", "Dentin matrix acidic …": "LPVTRYQNNESEDSEEWKGHLAQAPTPPLESSESSEGSKVSSEEQANEDPSDSTQSEEGLGSDDHQYIYRLAGGFSRSTGKGGDDKDDDEDDSGDDTFGDDDSGPGPKDRQEGGNSRLGSDEDSDDTIQASEESAPQGQDSAQDTTSESRELDNEDRVDSKPEGGDSTQESESEEHWVGGGSDGESSHGDGSELDDEGMQSDDPESIRSERGNSRMNSAGMKSKESGENSEQANTQDSGGSQLLEHPSRKIFRKSRISEEDDRSELDDNNTMEEVKSDSTENSNSRDTGLSQPRRDSKGDSQEDSKENLSQEESQNVDGPSSESSQEANLSSQENSSESQEEVVSESRGDNPDPTTSYVEDQEDSDSSEEDSSHTLSHSKSESREEQADSESSESLNFSEESPESPEDENSSSQEGLQSHSSSAESQSEESHSEEDDSDSQDSSRSKEDSNSTESKSSSEEDGQLKNIEIESRKLTVDAYHNKPIGDQDDNDCQDGY"}, "B2": {"name": "phosphophoryn (protein, UniProt Q9NZW4 463-1301, looked up)", "Dentin phosphoprotein": "DDPNSSDESNGNDDANSESDNNSSSRGDASYNSDESKDNGNGSDSKGAEDDDSDSTSDTNNSDSNGNGNNGNDDNDKSDSGKGKSDSSDSDSSDSSNSSDSSDSSDSDSSDSNSSSDSDSSDSDSSDSSDSDSSDSSNSSDSSDSSDSSDSSDSSDSSDSKSDSSKSESDSSDSDSKSDSSDSNSSDSSDNSDSSDSSNSSNSSDSSDSSDSSDSSSSSDSSNSSDSSDSSDSSNSSESSDSSDSSDSDSSDSSDSSNSNSSDSDSSNSSDSSDSSNSSDSSDSSDSSNSSDSSDSSDSSNSSDSSDSSDSSDSSDSSNSSDSNDSSNSSDSSDSSNSSDSSNSSDSSDSSDSSDSDSSNSSDSSNSSDSSDSSNSSDSSDSSDSSDGSDSDSSNRSDSSNSSDSSDSSDSSNSSDSSDSSDSNESSNSSDSSDSSNSSDSDSSDSSNSSDSSDSSNSSDSSESSNSSDNSNSSDSSNSSDSSDSSDSSNSSDSSNSSDSSNSSDSSDSNSSDSSDSSNSSDSSDSSDSSDSSDSSDSSNSSDSSDSSDSSDSSNSSDSSNSSDSSNSSDSSDSSDSSDSSDSSDSSDSSDSSNSSDSSDSSDSSDSSDSSDSSDSSDSSESSDSSDSSNSSDSSDSSDSSDSSDSSDSSDSSDSSDSSNSSDSSDSSDSSDSSDSSNSSDSSDSSESSDSSDSSDSSDSSDSSDSSDSSDSSDSSNSSDSSDSSDSSDSSDSSDSSDSSDSSDSSDSSDSSDSSDSSDSSDSSDSSDSNESSDSSDSSDSSDSSNSSDSSDSSDSSDSTSDSNDESDSQSKSGNGNNNGSDSDSDSEGSDSNHSTSDD", "modifications": "Dentin phosphoprotein", "notes": "major non-collagenous protein in dentin, Ser-Ser-Asp repeat motifs"}, "B3": {"name": "… (peptide)", "chain": "RRRDEDESSDSSDSSDSSDSSDSSDSSDSSDSSDSSDSSDSSDSSDSSDSSDSSDSSDSSDSSDSSDDEG", "modifications": "derived from consensus mammalian sequence of DSPP; (8)..(68) [Asp Ser Ser] repeats (n varies from 2 to 20); (1)..(3) Insertion of 3 Arg at the N terminus of the peptide; (4)..(7) Casein kinase 1 recognition motif; (69)..(71) Casein kinase 2 recognition motif"}, "B4": {"name": "… (peptide)", "chain": "B3 chain", "modifications": "derived from consensus mammalian sequence of DSPP; (8)..(68) [Asp Ser Ser] repeats (n varies from 2 to 20); (1)..(3) Insertion of 3 Arg at the N terminus of the peptide; (4)..(7) Casein kinase 1 recognition motif; (69)..(71) Casein kinase 2 recognition motif"}},
  "key": {"collagen fibrils": {"system": "collagen fibrils", "details": "cited from earlier work"}, "mixture of CK1 and CK2": {"system": "mixture of CK1 and CK2", "assay": "Mass spectrometry identification of phosphates incorporated by a mixture of CK1 and CK2", "type": "biochemical", "details": "MS, one hour", "description": "For mass spectrometry (MS) analysis, the reaction was performed as above, however, radiolabeled ATP was not used and the reaction mixture was transferred into a Tube-O-DIALYZER with a MWCO of 1000 and dialyzed overnight.\nFor MALDI-TOF-MS analysis, the peptides and CHCA matrix (α-cyano-4-hydroxycinnamic acid, 10 μg/μl, in 50% acetonitrile containing 0.1% trifluoroacetic acid) solutions were premixed in a small Eppendorf tube, spun down and remixed three times, then applied directly to the sample plate. Once applied to the target, the sample was allowed to air dry. The samples were analyzed using an Applied Biosystems (Foster City, Calif.) Voyager DE Pro or 4700 Proteomics Analyzer TOF/TOF instrument. The samples were also analyzed by LC-MS/MS on a ThermoFischer (Waltham, Mass.) Surveyor LC System coupled to a ThermoFischer LCQ Deca XP Plus mass spectrometer equipped with a nanospray ion source and also a ThermoFischer LTQ-XL instrument. The LC System contained a sample trap followed by a C18 column (BioBasic C18 PicoFrit column, 10 cm×75 μM, New Objective, Inc., Woburn, Mass.). […]\nUpon elution of the C18 column, the analyte was ionized by nano-capillary ESI. […] The MS/MS spectra were analyzed with BioWorks 3.2 Browser with the Sequest search engine. […]"}, "Casein Kinase 1 (CK1)": {"system": "Casein Kinase 1 (CK1)", "details": "for average number of phosphates per peptide: SD in parenthesis", "description": "R-SSD3 indicated by SEQ NO. 2 was phosphorylated in vitro by CK1, CK2 or a mixture of both kinases. ATP was used as a source of phosphate; and [γ-^32P] ATP was used for the scintillation counter experiments. The standard assay mixture consisted of 50 mM Tris-HCl, pH 7.4, 5 mM MgCl2, 1 mM EGTA and 10 mM β-glycerophosphate. […] The samples were vortexed and kept for 20 minutes at room temperature before transferring into a water bath at 30° C. The reaction was started by adding 10 μl of ATP (cold Mg-ATP and 1 μCi of [γ-^32P] ATP) and the reaction mixture was incubated at 30° C. in a shaker for 1 hr. To assess the kinetics of the reactions, phosphorylation was allowed to proceed for 20 minutes, 1 hour, 4 hours and 24 hours before the reaction was stopped. The reaction was terminated by adding 40 μl of loading Tricine sample buffer (200 mM Tris-HCl, pH 6.8, 2% SDS, 40% glycerol, 0.04% Coomassie G-250 dye). The samples were then boiled in a water bath for five minutes and subjected to electrophoresis on 16.5% Tris-Tricine gel run using Tris-Tricine/SDS buffer (containing 100 mM Tris, 100 mM Tricine, 0.1% SDS, pH 8.3) at 100V for 1.5 hours.\nIn vitro phosphorylation assay was performed according to conventional procedure. 25 ul reactions containing 1 μg of R-SSD3 peptide indicated by SEQ NO. 2, in the presence and absence of 300 ng of either CK1 or CK2 or both containing 10 μCi ^32P γ [ATP]. The reactions were performed in triplicate at 30° C. for 1 hour, 4 hours and 24 hours using one batch of radiolabeled ATP and enzymes from a single lot.\nThe reaction products were purified using SDS-PAGE, visualized by autoradiography, and band intensities were quantified using a Kodak 1D 3.6 imaging system. After autoradiography, the gel was overlaid on the autoradiogram, the individual protein bands were excised and ^32P incorporation was determined using a liquid scintillation counter (Beckman LS6500 system). To calculate the number of moles of phosphates transferred to 1 ug of peptide ([…]) in the kinase reaction, the mean counts per minute obtained in the kinase reactions from triplicates (minus blank) are divided by the specific activity of the ^32Pγ[ATP] in the kinase assay, as follows."}, "CK1 and CK2": {"system": "CK1 and CK2", "assay": "In vitro phosphorylation of peptide by CK1 and CK2 combined (32P scintillation)", "type": "biochemical", "details": "for average number of phosphates per peptide: SD in parenthesis", "text": "(§1) R-SSD3 indicated by SEQ NO. […] ATP was used for the scintillation counter experiments."}, "type I collagen fibrils": {"target": "T1, type I collagen fibrils (Rattus norvegicus, UniProt P02454+P02466)", "T1 construct": "from an acidic rat tail collagen solution; from tissue; host or cells: rat tail", "T1 sequence (P02454 152-1207 limits assumed)": "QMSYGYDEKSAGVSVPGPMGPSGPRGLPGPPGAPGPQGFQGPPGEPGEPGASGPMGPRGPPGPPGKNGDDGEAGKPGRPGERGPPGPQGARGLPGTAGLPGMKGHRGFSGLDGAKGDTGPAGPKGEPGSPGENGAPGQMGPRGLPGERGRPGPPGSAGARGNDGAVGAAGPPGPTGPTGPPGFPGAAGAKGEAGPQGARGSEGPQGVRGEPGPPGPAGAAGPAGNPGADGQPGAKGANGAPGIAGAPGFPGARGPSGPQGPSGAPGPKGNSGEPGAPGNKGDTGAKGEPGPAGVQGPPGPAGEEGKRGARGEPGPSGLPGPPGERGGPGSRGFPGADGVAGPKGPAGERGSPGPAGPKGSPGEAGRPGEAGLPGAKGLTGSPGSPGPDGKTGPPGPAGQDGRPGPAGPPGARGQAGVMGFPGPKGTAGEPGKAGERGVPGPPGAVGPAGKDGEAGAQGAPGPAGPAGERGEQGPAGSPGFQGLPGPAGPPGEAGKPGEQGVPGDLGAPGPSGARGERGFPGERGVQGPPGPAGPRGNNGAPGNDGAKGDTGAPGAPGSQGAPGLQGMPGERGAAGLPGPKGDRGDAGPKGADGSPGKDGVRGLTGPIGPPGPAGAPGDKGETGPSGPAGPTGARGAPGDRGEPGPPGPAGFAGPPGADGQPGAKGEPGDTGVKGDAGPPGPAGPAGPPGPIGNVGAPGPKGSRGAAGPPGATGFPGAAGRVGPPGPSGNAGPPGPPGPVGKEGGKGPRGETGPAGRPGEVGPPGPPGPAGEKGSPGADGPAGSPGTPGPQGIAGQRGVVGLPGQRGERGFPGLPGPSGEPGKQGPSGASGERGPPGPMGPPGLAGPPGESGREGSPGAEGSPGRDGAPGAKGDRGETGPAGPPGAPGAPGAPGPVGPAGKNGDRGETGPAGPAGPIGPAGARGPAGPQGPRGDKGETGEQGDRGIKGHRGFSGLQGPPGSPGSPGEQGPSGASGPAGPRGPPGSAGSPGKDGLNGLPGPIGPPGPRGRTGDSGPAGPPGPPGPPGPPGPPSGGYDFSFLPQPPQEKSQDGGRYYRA", "T1 sequence (P02466 86-1125 limits assumed)": "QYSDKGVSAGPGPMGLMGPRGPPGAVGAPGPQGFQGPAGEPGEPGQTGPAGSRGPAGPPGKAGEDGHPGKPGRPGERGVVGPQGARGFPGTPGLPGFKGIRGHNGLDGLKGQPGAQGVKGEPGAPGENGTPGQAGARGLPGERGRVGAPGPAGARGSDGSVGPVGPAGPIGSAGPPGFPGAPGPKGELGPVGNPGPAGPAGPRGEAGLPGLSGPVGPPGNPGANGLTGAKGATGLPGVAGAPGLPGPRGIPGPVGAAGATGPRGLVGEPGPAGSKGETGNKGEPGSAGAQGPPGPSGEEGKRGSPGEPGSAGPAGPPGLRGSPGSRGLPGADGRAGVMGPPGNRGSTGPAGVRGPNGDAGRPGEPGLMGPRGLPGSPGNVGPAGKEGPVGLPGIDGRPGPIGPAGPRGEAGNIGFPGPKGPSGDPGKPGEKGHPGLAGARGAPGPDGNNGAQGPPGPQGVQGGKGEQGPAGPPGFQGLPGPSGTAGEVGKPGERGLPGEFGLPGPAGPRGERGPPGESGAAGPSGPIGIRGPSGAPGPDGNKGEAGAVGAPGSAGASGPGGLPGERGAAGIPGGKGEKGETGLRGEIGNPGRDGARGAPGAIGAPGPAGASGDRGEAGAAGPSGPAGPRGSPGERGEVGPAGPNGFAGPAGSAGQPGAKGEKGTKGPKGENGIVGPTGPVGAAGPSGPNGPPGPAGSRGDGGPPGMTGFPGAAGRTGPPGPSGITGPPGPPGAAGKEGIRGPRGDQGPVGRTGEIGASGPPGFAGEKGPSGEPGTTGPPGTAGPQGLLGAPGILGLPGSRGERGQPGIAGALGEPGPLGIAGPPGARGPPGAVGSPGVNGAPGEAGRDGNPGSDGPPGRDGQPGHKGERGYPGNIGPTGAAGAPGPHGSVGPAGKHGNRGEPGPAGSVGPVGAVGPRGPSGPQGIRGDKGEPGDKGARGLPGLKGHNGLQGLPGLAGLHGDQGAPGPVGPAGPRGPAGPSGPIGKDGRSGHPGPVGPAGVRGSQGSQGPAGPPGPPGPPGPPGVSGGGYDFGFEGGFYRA", "assay": "On-grid mineralization of reconstituted collagen fibrils (TEM/SAED)", "description": "Mineralization experiments were carried out using a modification of an “on grid” mineralization setup developed in a lab and published in the art. The type I collagen fibrils were reconstituted on carbon-coated Cu grids, mesh #400 (EMS, Hatfield, Pa.) from an acidic rat tail collagen solution. Concentrated 10×PBS (mono- and disodium phosphate totaling 40 mM and 1.5 M NaCl), phosphorylated with CK2 and nonphosphorylated protein stock solution, […] to obtain 4 mM PBS, 1.67 mM Ca and 15 μg/ml peptide. Prior to the experiments, the pH of concentrated 10×PBS was adjusted such that upon mixing, the pH of the final mineralization solution was 7.8. The TEM grids coated with reconstituted collagen fibrils were floated on 50 μL droplets of the mineralization solution at 100% humidity for 16 hours at 37° C.\nTEM and selected area electron diffraction (SAED) studies were conducted using JEOL 1210 operated at 100 kV. The micrographs were recorded using an AMT CCD camera (AMT, Danvers, Mass.). An aluminum-coated TEM grid (EMS Hatfield, Pa.) was used as a standard for the calibration of SAED patterns for d-spacing calculations. The micrographs were analyzed using an ImageJ 1.38 software package (Bethesda, Md.)."}, "Casein Kinase 2 (CK2)": {"target": "T2, Casein Kinase 2 (CK2) (Homo sapiens, UniProt P68400)", "T2 construct": "purchased Millipore Inc. 14-197", "T2 sequence (P68400 whole entry)": "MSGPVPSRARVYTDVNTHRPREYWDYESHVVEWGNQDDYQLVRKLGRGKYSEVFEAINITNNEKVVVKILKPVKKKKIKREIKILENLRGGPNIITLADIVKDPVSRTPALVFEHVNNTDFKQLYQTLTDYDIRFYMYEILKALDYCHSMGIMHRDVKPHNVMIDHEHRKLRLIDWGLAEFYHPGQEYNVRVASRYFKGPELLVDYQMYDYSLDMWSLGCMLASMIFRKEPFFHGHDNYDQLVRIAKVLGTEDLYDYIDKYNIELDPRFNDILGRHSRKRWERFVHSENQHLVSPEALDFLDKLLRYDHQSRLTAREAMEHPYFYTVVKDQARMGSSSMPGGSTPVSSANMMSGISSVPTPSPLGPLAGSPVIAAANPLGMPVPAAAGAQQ", "T2 sequence (P67870 whole entry partner)": "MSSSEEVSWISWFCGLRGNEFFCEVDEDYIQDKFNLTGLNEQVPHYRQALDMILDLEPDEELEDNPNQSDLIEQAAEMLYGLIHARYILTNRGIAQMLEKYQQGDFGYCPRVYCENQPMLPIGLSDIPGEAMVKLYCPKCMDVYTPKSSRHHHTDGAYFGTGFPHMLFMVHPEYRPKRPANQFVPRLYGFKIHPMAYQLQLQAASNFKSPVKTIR", "assay": "In vitro phosphorylation of peptide by CK2 (32P scintillation / autoradiography)", "type": "biochemical", "details": "for average number of phosphates per peptide: SD in parenthesis", "text": "as §1"}, "[1]": {"system": "rabbit ulna critical size defect", "assay": "In vivo bone regeneration, rabbit ulna critical size defect", "text": "A collagen scaffold containing […] indicated by SEQ NO. 2 peptide was implanted into a critical size defect in a rabbit ulna model. […] 2 peptide eight weeks after the surgery. […] FIG. 10A is a low-magnification image and FIG. 10B is a close up of the area in FIG. 10A identified by a rectangle, of H&E stained nondecalcified sections of the regenerating ulnar bone eight weeks after the surgery."}},
  "note": "Values joined by “and” are separate entries in the source; they are usually repeats but may differ in a detail not shown here. Equal entries are not always repeated. Where two headings read alike, the source gives them in different places.",
  "data": [
    {"molecule": "B1", "values": [
      {"measurement": "collagen fibril mineralization", "setting": "collagen fibrils; nonphosphorylated protein", "value": "no organized mineralization of collagen fibrils was observed"},
      {"measurement": "collagen fibril mineralization", "setting": "collagen fibrils; phosphorylated protein", "value": "highly organized mineralized collagen fibrils"}
    ]},
    {"molecule": "B2", "values": [
      {"measurement": "collagen fibril mineralization", "setting": "collagen fibrils; nonphosphorylated protein", "value": "no organized mineralization of collagen fibrils was observed"},
      {"measurement": "collagen fibril mineralization", "setting": "collagen fibrils; phosphorylated protein", "value": "highly organized mineralized collagen fibrils"}
    ]},
    {"molecule": "B3", "values": [
      {"measurement": "maximum number of phosphates incorporated onto the peptide", "setting": "mixture of CK1 and CK2", "value": "four out of six possible"},
      {"measurement": "average number of phosphates per peptide", "setting": "Casein Kinase 1 (CK1); CK1, 1 hour", "value": "0.006 (0.002) phosphates per peptide"},
      {"measurement": "average number of phosphates per peptide", "setting": "Casein Kinase 1 (CK1); CK1, 4 hours", "value": "0.139 (0.103) phosphates per peptide"},
      {"measurement": "average number of phosphates per peptide", "setting": "Casein Kinase 1 (CK1); CK1, 24 hours", "value": "1.8 phosphates per peptide and 1.778 (1.196) phosphates per peptide"},
      {"measurement": "share of all serines phosphorylated", "setting": "Casein Kinase 1 (CK1); CK1 group, 24 hours", "value": 30, "unit": "%"},
      {"measurement": "share of all serines phosphorylated", "setting": "CK1 and CK2; CK1+CK2 group, 24 hours", "value": 58, "unit": "%"},
      {"measurement": "average number of phosphates per peptide", "setting": "CK1 and CK2; CK1 and CK2, 1 hour", "value": "0.0191 (0.007) phosphates per peptide"},
      {"measurement": "average number of phosphates per peptide", "setting": "CK1 and CK2; CK1 and CK2, 4 hours", "value": "0.343 (0.124) phosphates per peptide"},
      {"measurement": "average number of phosphates per peptide", "setting": "CK1 and CK2; CK1 and CK2, 24 hours", "value": "3.5 phosphates per peptide and 3.4555 (1.755) phosphates per peptide"},
      {"measurement": "collagen fibril mineralization pattern", "setting": "type I collagen fibrils; 15 μg/ml peptide, 16 hours, 37° C., pH 7.8, TEM", "value": "randomly oriented crystals formed throughout the grid"},
      {"measurement": "mineral nucleation outside of the collagen fibrils", "setting": "type I collagen fibrils; TEM, phosphorylated peptide experiments", "value": "suppressed mineral nucleation outside of the collagen fibrils"},
      {"measurement": "average number of phosphates per peptide", "setting": "Casein Kinase 2 (CK2); CK2, 1 hour", "value": "0.0148 (0.015) phosphates per peptide"},
      {"measurement": "average number of phosphates per peptide", "setting": "Casein Kinase 2 (CK2); CK2, 4 hours", "value": "0.435 (0.099) phosphates per peptide"},
      {"measurement": "average number of phosphates per peptide", "setting": "Casein Kinase 2 (CK2); CK2, 24 hours", "value": "4.4 phosphates per peptide and 4.354 (0.957) phosphates per peptide"},
      {"measurement": "share of all serines phosphorylated", "setting": "Casein Kinase 2 (CK2); CK2 group, 24 hours", "value": 73, "unit": "%"}
    ]},
    {"molecule": "B4", "values": [
      {"measurement": "bone re-growth (MicroCT)", "setting": "[1]; collagen scaffold containing peptide, 8 weeks, versus no implant", "value": "significant bone re-growth"},
      {"measurement": "bridging of the defect (H&E nondecalcified sections)", "setting": "[1]; eight weeks after the surgery", "value": "almost complete bridging of the critical size defect by bone"}
    ]}
  ]
}
